Measured values taken from patent US20260167699A1 (Chugai, published 2026).

Target: T1, FcγRIIIa (human, UniProt P08637 17-208)
T1 construct: extracellular domain; also called 3a; FcγRIIIa extracellular domain
Assay: SPR (Biacore);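 further: antibody variants captured on an SPR sensor chip, with FcγRIIIa passed over as analyte in HBS-EP+ buffer at 25 °C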

T1 sequence (P08637 other isoform, or with tags, fused parts or gaps): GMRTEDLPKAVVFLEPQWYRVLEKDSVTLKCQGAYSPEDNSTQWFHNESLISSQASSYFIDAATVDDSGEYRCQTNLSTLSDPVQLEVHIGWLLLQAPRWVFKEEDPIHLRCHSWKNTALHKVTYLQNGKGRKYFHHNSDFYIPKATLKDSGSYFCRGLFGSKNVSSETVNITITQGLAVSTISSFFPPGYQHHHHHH

Binder | He/Con 3a
GpH7-A5/GpH7-B3 variant P271_04F/GpL16-k0 (antibody, human IgG1, kappa, copies: 1 + 1 + 2) heavy 1: not shown heavy 2: not shown light: DIVMTQSPLSLPVTPGEPASISCQASESLVHSNRNTYLHWYLQKPGQSPQLLIYKVSNRFSGVPDRFSGSGSGTDFTLKISRVEAEDVGVYYCSQNTHVPPTFGQGTKVEIERTVAAPSVFIFPPSDEQLKSGTASVVCLLNNFYPREAKVQWKVDNALQSGNSQESVTEQDSKDSTYSLSSTLTLSKADYEKHKVYACEVTHQGLSSPVTKSFNRGEC | 65.6 % of GpH7-A5/GpH7-B3/GpL16-k0
GpH7-A5/GpH7-B3 variant P271_08L/GpL16-k0 (antibody, human IgG1, kappa, copies: 1 + 1 + 2) heavy 1: not shown heavy 2: not shown light: DIVMTQSPLSLPVTPGEPASISCQASESLVHSNRNTYLHWYLQKPGQSPQLLIYKVSNRFSGVPDRFSGSGSGTDFTLKISRVEAEDVGVYYCSQNTHVPPTFGQGTKVEIERTVAAPSVFIFPPSDEQLKSGTASVVCLLNNFYPREAKVQWKVDNALQSGNSQESVTEQDSKDSTYSLSSTLTLSKADYEKHKVYACEVTHQGLSSPVTKSFNRGEC | 74.5 % of GpH7-A5/GpH7-B3/GpL16-k0
GpH7-A5/GpH7-B3 variant P271_20W/GpL16-k0 (antibody, human IgG1, kappa, copies: 1 + 1 + 2) heavy 1: not shown heavy 2: not shown light: DIVMTQSPLSLPVTPGEPASISCQASESLVHSNRNTYLHWYLQKPGQSPQLLIYKVSNRFSGVPDRFSGSGSGTDFTLKISRVEAEDVGVYYCSQNTHVPPTFGQGTKVEIERTVAAPSVFIFPPSDEQLKSGTASVVCLLNNFYPREAKVQWKVDNALQSGNSQESVTEQDSKDSTYSLSSTLTLSKADYEKHKVYACEVTHQGLSSPVTKSFNRGEC | 77.8 % of GpH7-A5/GpH7-B3/GpL16-k0
GpH7-A5/GpH7-B3 variant P271_07I/GpL16-k0 (antibody, human IgG1, kappa, copies: 1 + 1 + 2) heavy 1: not shown heavy 2: not shown light: DIVMTQSPLSLPVTPGEPASISCQASESLVHSNRNTYLHWYLQKPGQSPQLLIYKVSNRFSGVPDRFSGSGSGTDFTLKISRVEAEDVGVYYCSQNTHVPPTFGQGTKVEIERTVAAPSVFIFPPSDEQLKSGTASVVCLLNNFYPREAKVQWKVDNALQSGNSQESVTEQDSKDSTYSLSSTLTLSKADYEKHKVYACEVTHQGLSSPVTKSFNRGEC | 80.2 % of GpH7-A5/GpH7-B3/GpL16-k0
GpH7-A5/GpH7-B3 variant P271_13S/GpL16-k0 (antibody, human IgG1, kappa, copies: 1 + 1 + 2) heavy 1: not shown heavy 2: not shown light: DIVMTQSPLSLPVTPGEPASISCQASESLVHSNRNTYLHWYLQKPGQSPQLLIYKVSNRFSGVPDRFSGSGSGTDFTLKISRVEAEDVGVYYCSQNTHVPPTFGQGTKVEIERTVAAPSVFIFPPSDEQLKSGTASVVCLLNNFYPREAKVQWKVDNALQSGNSQESVTEQDSKDSTYSLSSTLTLSKADYEKHKVYACEVTHQGLSSPVTKSFNRGEC | 79.8 % of GpH7-A5/GpH7-B3/GpL16-k0
GpH7-A5/GpH7-B3 variant P271_19Q/GpL16-k0 (antibody, human IgG1, kappa, copies: 1 + 1 + 2) heavy 1: not shown heavy 2: not shown light: DIVMTQSPLSLPVTPGEPASISCQASESLVHSNRNTYLHWYLQKPGQSPQLLIYKVSNRFSGVPDRFSGSGSGTDFTLKISRVEAEDVGVYYCSQNTHVPPTFGQGTKVEIERTVAAPSVFIFPPSDEQLKSGTASVVCLLNNFYPREAKVQWKVDNALQSGNSQESVTEQDSKDSTYSLSSTLTLSKADYEKHKVYACEVTHQGLSSPVTKSFNRGEC | 84.6 % of GpH7-A5/GpH7-B3/GpL16-k0
GpH7-A5/GpH7-B3 variant P271_11K/GpL16-k0 (antibody, human IgG1, kappa, copies: 1 + 1 + 2) heavy 1: not shown heavy 2: not shown light: DIVMTQSPLSLPVTPGEPASISCQASESLVHSNRNTYLHWYLQKPGQSPQLLIYKVSNRFSGVPDRFSGSGSGTDFTLKISRVEAEDVGVYYCSQNTHVPPTFGQGTKVEIERTVAAPSVFIFPPSDEQLKSGTASVVCLLNNFYPREAKVQWKVDNALQSGNSQESVTEQDSKDSTYSLSSTLTLSKADYEKHKVYACEVTHQGLSSPVTKSFNRGEC | 92.5 % of GpH7-A5/GpH7-B3/GpL16-k0
GpH7-A5/GpH7-B3 variant P271_15Y/GpL16-k0 (antibody, human IgG1, kappa, copies: 1 + 1 + 2) heavy 1: not shown heavy 2: not shown light: DIVMTQSPLSLPVTPGEPASISCQASESLVHSNRNTYLHWYLQKPGQSPQLLIYKVSNRFSGVPDRFSGSGSGTDFTLKISRVEAEDVGVYYCSQNTHVPPTFGQGTKVEIERTVAAPSVFIFPPSDEQLKSGTASVVCLLNNFYPREAKVQWKVDNALQSGNSQESVTEQDSKDSTYSLSSTLTLSKADYEKHKVYACEVTHQGLSSPVTKSFNRGEC | 62.7 % of GpH7-A5/GpH7-B3/GpL16-k0
GpH7-A5/GpH7-B3 variant P329_09D/GpL16-k0 (antibody, human IgG1, kappa, copies: 1 + 1 + 2) heavy 1: not shown heavy 2: not shown light: DIVMTQSPLSLPVTPGEPASISCQASESLVHSNRNTYLHWYLQKPGQSPQLLIYKVSNRFSGVPDRFSGSGSGTDFTLKISRVEAEDVGVYYCSQNTHVPPTFGQGTKVEIERTVAAPSVFIFPPSDEQLKSGTASVVCLLNNFYPREAKVQWKVDNALQSGNSQESVTEQDSKDSTYSLSSTLTLSKADYEKHKVYACEVTHQGLSSPVTKSFNRGEC | 52.5 % of GpH7-A5/GpH7-B3/GpL16-k0
GpH7-A5/GpH7-B3 variant P331_02A/GpL16-k0 (antibody, human IgG1, kappa, copies: 1 + 1 + 2) heavy 1: not shown heavy 2: not shown light: DIVMTQSPLSLPVTPGEPASISCQASESLVHSNRNTYLHWYLQKPGQSPQLLIYKVSNRFSGVPDRFSGSGSGTDFTLKISRVEAEDVGVYYCSQNTHVPPTFGQGTKVEIERTVAAPSVFIFPPSDEQLKSGTASVVCLLNNFYPREAKVQWKVDNALQSGNSQESVTEQDSKDSTYSLSSTLTLSKADYEKHKVYACEVTHQGLSSPVTKSFNRGEC | 82.5 % of GpH7-A5/GpH7-B3/GpL16-k0
GpH7-A5/GpH7-B3 variant P331_03V/GpL16-k0 (antibody, human IgG1, kappa, copies: 1 + 1 + 2) heavy 1: not shown heavy 2: not shown light: DIVMTQSPLSLPVTPGEPASISCQASESLVHSNRNTYLHWYLQKPGQSPQLLIYKVSNRFSGVPDRFSGSGSGTDFTLKISRVEAEDVGVYYCSQNTHVPPTFGQGTKVEIERTVAAPSVFIFPPSDEQLKSGTASVVCLLNNFYPREAKVQWKVDNALQSGNSQESVTEQDSKDSTYSLSSTLTLSKADYEKHKVYACEVTHQGLSSPVTKSFNRGEC | 66.9 % of GpH7-A5/GpH7-B3/GpL16-k0
GpH7-A5/GpH7-B3 variant P271_09D/GpL16-k0 (antibody, human IgG1, kappa, copies: 1 + 1 + 2) heavy 1: not shown heavy 2: not shown light: DIVMTQSPLSLPVTPGEPASISCQASESLVHSNRNTYLHWYLQKPGQSPQLLIYKVSNRFSGVPDRFSGSGSGTDFTLKISRVEAEDVGVYYCSQNTHVPPTFGQGTKVEIERTVAAPSVFIFPPSDEQLKSGTASVVCLLNNFYPREAKVQWKVDNALQSGNSQESVTEQDSKDSTYSLSSTLTLSKADYEKHKVYACEVTHQGLSSPVTKSFNRGEC | 97.7 % of GpH7-A5/GpH7-B3/GpL16-k0
GpH7-A5/GpH7-B3 variant P271_10E/GpL16-k0 (antibody, human IgG1, kappa, copies: 1 + 1 + 2) heavy 1: not shown heavy 2: not shown light: DIVMTQSPLSLPVTPGEPASISCQASESLVHSNRNTYLHWYLQKPGQSPQLLIYKVSNRFSGVPDRFSGSGSGTDFTLKISRVEAEDVGVYYCSQNTHVPPTFGQGTKVEIERTVAAPSVFIFPPSDEQLKSGTASVVCLLNNFYPREAKVQWKVDNALQSGNSQESVTEQDSKDSTYSLSSTLTLSKADYEKHKVYACEVTHQGLSSPVTKSFNRGEC | 98.2 % of GpH7-A5/GpH7-B3/GpL16-k0
GpH7-A5/GpH7-B3 variant P331_04F/GpL16-k0 (antibody, human IgG1, kappa, copies: 1 + 1 + 2) heavy 1: not shown heavy 2: not shown light: DIVMTQSPLSLPVTPGEPASISCQASESLVHSNRNTYLHWYLQKPGQSPQLLIYKVSNRFSGVPDRFSGSGSGTDFTLKISRVEAEDVGVYYCSQNTHVPPTFGQGTKVEIERTVAAPSVFIFPPSDEQLKSGTASVVCLLNNFYPREAKVQWKVDNALQSGNSQESVTEQDSKDSTYSLSSTLTLSKADYEKHKVYACEVTHQGLSSPVTKSFNRGEC | 70.7 % of GpH7-A5/GpH7-B3/GpL16-k0
GpH7-A5/GpH7-B3 variant P329_10E/GpL16-k0 (antibody, human IgG1, kappa, copies: 1 + 1 + 2) heavy 1: not shown heavy 2: not shown light: DIVMTQSPLSLPVTPGEPASISCQASESLVHSNRNTYLHWYLQKPGQSPQLLIYKVSNRFSGVPDRFSGSGSGTDFTLKISRVEAEDVGVYYCSQNTHVPPTFGQGTKVEIERTVAAPSVFIFPPSDEQLKSGTASVVCLLNNFYPREAKVQWKVDNALQSGNSQESVTEQDSKDSTYSLSSTLTLSKADYEKHKVYACEVTHQGLSSPVTKSFNRGEC | 52.7 % of GpH7-A5/GpH7-B3/GpL16-k0
GpH7-A5/GpH7-B3 variant P329_02A/GpL16-k0 (antibody, human IgG1, kappa, copies: 1 + 1 + 2) heavy 1: not shown heavy 2: not shown light: DIVMTQSPLSLPVTPGEPASISCQASESLVHSNRNTYLHWYLQKPGQSPQLLIYKVSNRFSGVPDRFSGSGSGTDFTLKISRVEAEDVGVYYCSQNTHVPPTFGQGTKVEIERTVAAPSVFIFPPSDEQLKSGTASVVCLLNNFYPREAKVQWKVDNALQSGNSQESVTEQDSKDSTYSLSSTLTLSKADYEKHKVYACEVTHQGLSSPVTKSFNRGEC | 55.2 % of GpH7-A5/GpH7-B3/GpL16-k0
GpH7-A5/GpH7-B3 variant P271_16H/GpL16-k0 (antibody, human IgG1, kappa, copies: 1 + 1 + 2) heavy 1: not shown heavy 2: not shown light: DIVMTQSPLSLPVTPGEPASISCQASESLVHSNRNTYLHWYLQKPGQSPQLLIYKVSNRFSGVPDRFSGSGSGTDFTLKISRVEAEDVGVYYCSQNTHVPPTFGQGTKVEIERTVAAPSVFIFPPSDEQLKSGTASVVCLLNNFYPREAKVQWKVDNALQSGNSQESVTEQDSKDSTYSLSSTLTLSKADYEKHKVYACEVTHQGLSSPVTKSFNRGEC | 70.3 % of GpH7-A5/GpH7-B3/GpL16-k0
GpH7-A5/GpH7-B3 variant P331_06M/GpL16-k0 (antibody, human IgG1, kappa, copies: 1 + 1 + 2) heavy 1: not shown heavy 2: not shown light: DIVMTQSPLSLPVTPGEPASISCQASESLVHSNRNTYLHWYLQKPGQSPQLLIYKVSNRFSGVPDRFSGSGSGTDFTLKISRVEAEDVGVYYCSQNTHVPPTFGQGTKVEIERTVAAPSVFIFPPSDEQLKSGTASVVCLLNNFYPREAKVQWKVDNALQSGNSQESVTEQDSKDSTYSLSSTLTLSKADYEKHKVYACEVTHQGLSSPVTKSFNRGEC | 68.4 % of GpH7-A5/GpH7-B3/GpL16-k0
GpH7-A5/GpH7-B3 variant P271_18N/GpL16-k0 (antibody, human IgG1, kappa, copies: 1 + 1 + 2) heavy 1: not shown heavy 2: not shown light: DIVMTQSPLSLPVTPGEPASISCQASESLVHSNRNTYLHWYLQKPGQSPQLLIYKVSNRFSGVPDRFSGSGSGTDFTLKISRVEAEDVGVYYCSQNTHVPPTFGQGTKVEIERTVAAPSVFIFPPSDEQLKSGTASVVCLLNNFYPREAKVQWKVDNALQSGNSQESVTEQDSKDSTYSLSSTLTLSKADYEKHKVYACEVTHQGLSSPVTKSFNRGEC | 94 % of GpH7-A5/GpH7-B3/GpL16-k0
GpH7-A5/GpH7-B3 variant P271_06M/GpL16-k0 (antibody, human IgG1, kappa, copies: 1 + 1 + 2) heavy 1: not shown heavy 2: not shown light: DIVMTQSPLSLPVTPGEPASISCQASESLVHSNRNTYLHWYLQKPGQSPQLLIYKVSNRFSGVPDRFSGSGSGTDFTLKISRVEAEDVGVYYCSQNTHVPPTFGQGTKVEIERTVAAPSVFIFPPSDEQLKSGTASVVCLLNNFYPREAKVQWKVDNALQSGNSQESVTEQDSKDSTYSLSSTLTLSKADYEKHKVYACEVTHQGLSSPVTKSFNRGEC | 74 % of GpH7-A5/GpH7-B3/GpL16-k0
GpH7-A5/GpH7-B3 variant P271_14T/GpL16-k0 (antibody, human IgG1, kappa, copies: 1 + 1 + 2) heavy 1: not shown heavy 2: not shown light: DIVMTQSPLSLPVTPGEPASISCQASESLVHSNRNTYLHWYLQKPGQSPQLLIYKVSNRFSGVPDRFSGSGSGTDFTLKISRVEAEDVGVYYCSQNTHVPPTFGQGTKVEIERTVAAPSVFIFPPSDEQLKSGTASVVCLLNNFYPREAKVQWKVDNALQSGNSQESVTEQDSKDSTYSLSSTLTLSKADYEKHKVYACEVTHQGLSSPVTKSFNRGEC | 59.2 % of GpH7-A5/GpH7-B3/GpL16-k0
GpH7-A5/GpH7-B3 variant P271_12R/GpL16-k0 (antibody, human IgG1, kappa, copies: 1 + 1 + 2) heavy 1: not shown heavy 2: not shown light: DIVMTQSPLSLPVTPGEPASISCQASESLVHSNRNTYLHWYLQKPGQSPQLLIYKVSNRFSGVPDRFSGSGSGTDFTLKISRVEAEDVGVYYCSQNTHVPPTFGQGTKVEIERTVAAPSVFIFPPSDEQLKSGTASVVCLLNNFYPREAKVQWKVDNALQSGNSQESVTEQDSKDSTYSLSSTLTLSKADYEKHKVYACEVTHQGLSSPVTKSFNRGEC | 87.6 % of GpH7-A5/GpH7-B3/GpL16-k0
